Results taken from US20250207145A1, “URIDINE DIPHOSPHATE-GLYCOSYLTRANSFERASE AND A […], TISSUE, AND ORGANISM COMPRISING SAME” (YEDA RESEARCH AND DEVELOPMENT CO. LTD., priority 2022, published 2025).

What was measured:
Type in all cases: biochemical
[1] = UGT enzyme assay with crude E. coli lysates, UDP-Glc as sugar donor; conditions: crude lysate, substrates OA, CBGA, heliCBGA, FIG. 8
Experimental: Selected UGT genes from Helichrysum were individually cloned into the pET28b vector and expressed in E. coli BL21 (DE3) cells. Bacterial starters were grown overnight in LB medium at 37° C., diluted in fresh LB 1:100, and re-incubated at 37° C. When cultures reached A600=0.6, protein expression was induced with 400 μM of isopropyl-1-thio-β-d-galactopyranoside (IPTG) overnight at 15° C. Bacterial cells were lysed by sonication in 50 mM Tris-HCl pH 8, 0.5 mM phenylmethylsulfonyl fluoride (PMSF, Sigma Aldrich) solution in isopropanol, 10% glycerol and protease inhibitor cocktail (Sigma Aldrich), and 1 mg ml-1 lysozyme (Sigma Aldrich). […] Protein concentration of the eluted fractions was measured with Pierce™ 660 nm protein assay reagent (Thermo Scientific).
Recombinant UGT assays using different aromatic substrates were performed by mixing 1.5 μl of the UDP solution (80 mM, final concentration: 2.5 mM), 27.5 μl Tris buffer (100 mM), 1 μl of each of the substrates (50 mM, final concentration: 1 mM) and 20 μl of the lysate enzyme solution. […] To stop the reactions, 100 μl methanol was added to each tube, and the compounds were extracted and analyzed as previously described. […] […]

[2] = In vitro assays with purified UGTs and an array of cannabinoid substrates; conditions: purified enzymes
Experimental: Selected UGT genes from Helichrysum were individually cloned into the pET28b vector and expressed in E. coli BL21 (DE3) cells. Bacterial starters were grown overnight in LB medium at 37° C., diluted in fresh LB 1:100, and re-incubated at 37° C. When cultures reached A600=0.6, protein expression was induced with 400 μM of isopropyl-1-thio-β-d-galactopyranoside (IPTG) overnight at 15° C. Bacterial cells were lysed by sonication in 50 mM Tris-HCl pH 8, 0.5 mM phenylmethylsulfonyl fluoride (PMSF, Sigma Aldrich) solution in isopropanol, 10% glycerol and protease inhibitor cocktail (Sigma Aldrich), and 1 mg ml-1 lysozyme (Sigma Aldrich). The whole-cell extract was either kept for functional activity or used for protein purification. Purification of proteins was performed on Ni-NTA agarose beads (Adar Biotech). The proteins were eluted with 200 mM imidazole (Fluka) in buffer containing 50 mM NaH2PO4, pH 8 and 0.5 M NaCl. Protein concentration of the eluted fractions was measured with Pierce™ 660 nm protein assay reagent (Thermo Scientific).
Recombinant UGT assays using different aromatic substrates were performed by mixing 1.5 μl of the UDP solution (80 mM, final concentration: 2.5 mM), 27.5 μl Tris buffer (100 mM), 1 μl of each of the substrates (50 mM, final concentration: 1 mM) and 20 μl of the lysate enzyme solution. The reactions were incubated at 30° C. for 1 h. To stop the reactions, 50 μl methanol were added to each tube, vortexed for 10 s, centrifuged at maximum speed for 10 min, and then the supernatant was recovered and used for UPLC-qTOF analysis. The assay with the purified UGTs was performed by mixing 2 μl of the cannabinoid acceptors (OA, DHSA, CBGA, heliCBGA, CBDA, A9-THCA, CBCA, olivetol, CBG, CBD or 49-THC, hexanoylphloroglucinol, naringenin chalcone or pinocembrin chalcone) in the presence of 1.5 μl UDP 80 mM, 46.5 μl Tris buffer (100 mM, pH 8.0) and 1 μl of each enzyme. To stop the reactions, 100 μl methanol was added to each tube, and the compounds were extracted and analyzed as previously described. Kinetics assays were performed with the purified enzymes (1.5 μg/μl) dissolved in 45 μl Tris buffer (100 mM, pH 8.0) and substrates were added using varying (0.5 μM-3 mM) and constant (1 mM) concentrations of OA and UDP and the total reaction volume was 50 μl. To stop the reactions, 100 μl methanol was added to each tube, and the compounds were extracted and analyzed as previously described.
Next, the inventors recombinantly expressed eleven of the thirteen UGTs from Helichrysum in E. coli and used the crude lysate to examine the activity of the proteins using OA, CBGA, and heliCBGA in a reaction including UDP-Glc as the sugar donor. […] The inventors screened the LC/HRMS chromatograms for glucosylated and diglucosylated products according to the theoretical m/z values. […] All the enzymes were active with varying substrate specificity and products produced.

[3] = Steady state kinetics assays of purified UGTs with OA and UDP; conditions: OA 0.5 μM-3 mM varying, UDP 1 mM constant; compared HuUGT11, HuUGT13, OsUGT, SrUGT; FIG. 12
Experimental: FIGS. 12A-12B include curves and a table showing comparison of steady state kinetic analysis of HuUGT11 and HuUGT13 versus OsUGT and SrUGT, with olivetolic acid and UDP-glc. (12A) The Michaelis-Menten Km value of each enzyme was calculated using varying (0.5 μM-3 mM) and constant (1 mM) concentrations of olivetolic acid and […] (n=3 technically independent samples; measurements were plotted individually). Since there was no analytical standard available for Glc-OA, V0 was calculated using the calibration curve of OA. (12B) A summary of the results presented in 12A. V0 and Vmax were calculated using the calibration curve of OA since there was no analytical standard available for Glc-OA.
Recombinant UGT assays using different aromatic substrates were performed by mixing 1.5 μl of the UDP solution (80 mM, final concentration: 2.5 mM), 27.5 μl Tris buffer (100 mM), 1 μl of each of the substrates (50 mM, final concentration: 1 mM) and 20 μl of the lysate enzyme solution. The reactions were incubated at 30° C. for 1 h. […] To stop the reactions, 100 μl methanol was added to each tube, and the compounds were extracted and analyzed as previously described. […] To stop the reactions, 100 μl methanol was added to each tube, and the compounds were extracted and analyzed as previously described.

Molecule | activity of lysates containing HuUGTs on the different substrates [1] | activity on the cannabinoid intermediates [2] | activity on the prenylated compounds [2] | diglucosylation of acid compounds ([2]; UDP-glc, FIG. 11) | catalytic performance in kinetics assays versus the other enzymes [3]
HuUGT13: UDP-glycosyltransferase from Helichrysum umbraculigerum, recombinantly expressed in E. coli (protein, listed as Helichrysum umbraculigerum) MSLVTNNPHLLVYPLPTSGHIIPLLDLTDLLLRRGLTITVVISTTDLTLLDTLLSSHPTSLHKLYFPDPEIGPSSHPVIARIIATQKLFDPIVKWFESHPSPPVAIISDFFLGWTNELASRLGIRRVVFSPSGALGHSILQSLWRDVAEINAKNVDGNGNYSISFTDIPNSPEFHWWQLSQLLRVHREGDPDFEFFRNGMLANTKSWGIVYNTFERIEKVYIDHVKKQIGHDRVWAIGPLLPEEHGPVGSTARGGSSVVPPHDLLTWLDKKPHDSVVYICFGSRLTLSEKQMSALASALELSNVDFILCVKASGSSFIPSGFEDRVVGRGFVIKGWAPQLAILRHRAVGSFVTHCGWNSTLEGVSSGVMMLTWPMGADQYANAKLLVDQLGVGKRVCEGGPESVPDSTELARLLEESLSGDTSERVKVKELSREANTAVKEGTSIRDLNMFVNLLSEL | showed activity | highly active | almost inactive |  | 
HuUGT6: UDP-glycosyltransferase from Helichrysum umbraculigerum, recombinantly expressed in E. coli (protein, listed as Helichrysum umbraculigerum) MTQKQMQMQPHFLLVTYPAQGHINPSLQFAERLIRLGVKVTFTTTVSAYRRMSKAGNISEFLNFAAFSDGFDDGFNFETDDHGLFLTQLRSRGKDSLKETILSNAKNGTPISCLVYTLLLPWAPEVARGLNVPSAFLWIQPASVLRLYYYYFNGYNELIGDDCNEPSWSIQLPGLPLLKS |  |  |  | only observed in case of HuUGT6 | 
HuUGT11: UDP-glycosyltransferase from Helichrysum umbraculigerum, recombinantly expressed in E. coli (protein, listed as Helichrysum umbraculigerum) MGSLKKGAHILIFPFPAQGHMLPLLDLTHHLATNGLTITILVTPKNLPILNPLLSSSPNIQPLVFPFPPHPRLPPHVENVKDIGNHANVPITNSLAKLQDQIIQWFNSHHNPPVAIISDFFLGWTQHLANKLGIPRVGFFSSGAYLTAVLDYVCHNIKTVRSQEETVFHDLPNSPCFKFEHLPGLAQIYKESDPEWELVLDGHIANGLSWGWIVNTFDGLESRYMEYLTKKMGVGRVFGVGPVNLLNGSDPMTRGKSESGSDSGVLNWLDGKPDGSVLYVCFGSQKFLTNDQMEGLSIGLEQSGVHYVWVVKDEQGDAIRSGSGRGLVVTGWAPQVSILGHGAVGGFLSHCGWNSVLEAIVNGVMILAWPMEADQFVNAKLLVDDHGIGVWVCEGPNTVPDSTELARKIGESMSTDKSEKVKAKEMKNKANEAVKEGGSSSMELSRLVKELSNFETNGP | showed activity | highly active | almost inactive |  | impressive catalytic advantage
